# Results published in article PMC12018839.
# T1: GST-PIL15 (Oryza sativa (rice), UniProt Q0JNI9 1-637)
# T1 sequence: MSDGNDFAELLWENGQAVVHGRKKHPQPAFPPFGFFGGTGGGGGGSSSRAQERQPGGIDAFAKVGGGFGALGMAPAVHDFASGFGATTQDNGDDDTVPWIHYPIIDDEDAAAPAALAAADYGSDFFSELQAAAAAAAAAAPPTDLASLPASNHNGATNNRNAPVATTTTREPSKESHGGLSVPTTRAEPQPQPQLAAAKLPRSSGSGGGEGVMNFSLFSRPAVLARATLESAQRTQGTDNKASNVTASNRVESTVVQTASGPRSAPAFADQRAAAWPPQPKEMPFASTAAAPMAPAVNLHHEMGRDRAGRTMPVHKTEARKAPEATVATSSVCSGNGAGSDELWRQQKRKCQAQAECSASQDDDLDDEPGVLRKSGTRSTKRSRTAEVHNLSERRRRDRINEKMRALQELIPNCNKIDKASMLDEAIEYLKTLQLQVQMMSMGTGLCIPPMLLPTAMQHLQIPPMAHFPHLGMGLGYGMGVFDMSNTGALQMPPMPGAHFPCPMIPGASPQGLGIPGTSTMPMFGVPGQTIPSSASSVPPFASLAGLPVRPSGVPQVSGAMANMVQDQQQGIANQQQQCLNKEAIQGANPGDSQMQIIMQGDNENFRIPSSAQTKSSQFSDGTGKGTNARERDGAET
# B1: PIL15 EMSA probe (AMT1;2 promoter PBE-box) (dsDNA)
# DNA 1: AGGATTTCATGTGTTTTGGT
# DNA 2: ACCAAAACACATGAAATCCT
# Biological target: T1, GST-PIL15
# Experiment: EMSA
binder,measurement,value
B1,binding result,binds
